Data as given in patent publication US20200353078A1 (AstraZeneca / MedImmune, published 2020).
Positions count from the first letter of the chain named. One block for each binder: values may come before it.

How the values were obtained:
Human IL-33 Flag®His [1] = biological target: T1, Human IL-33 Flag®His (human); experiment: cell-based or functional assay
T1 chain: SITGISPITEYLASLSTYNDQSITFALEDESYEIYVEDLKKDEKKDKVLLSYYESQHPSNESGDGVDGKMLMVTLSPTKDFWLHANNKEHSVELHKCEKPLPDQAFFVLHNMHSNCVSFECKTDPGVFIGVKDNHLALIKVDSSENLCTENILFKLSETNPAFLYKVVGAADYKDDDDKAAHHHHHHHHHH

Human IL-33 Flag®His [2] = biological target: T1, Human IL-33 Flag®His; experiment: HTRF competition, IgG titrated against biotinylated human ST2-Fc
Protocol: The ability of anti-IL-33 antibodies to inhibit the binding of FLAG®-His tagged IL-33 to the ST2 receptor was assessed in a biochemical HTRF® (Homogeneous Time-Resolved Fluorescence, Cisbio International) competition assay, the principles of which are described above.
Activity of purified IgG preparations were determined by competing a dilution series of the purified IgG against biotinylated human or mouse ST2.Fc for binding to FLAG® His-tagged human, cynomolgus or mouse IL-33.
Purified or unpurified anti-IL-33 antibody samples were tested for inhibition of FLAG®-His tagged IL-33 binding ST2-Fc by adding 10 microlitres of each dilution of antibody test sample to a 384 well low volume assay plate (Costar 3676). Next, a solution containing 4 nM biotinylated human or mouse ST2-Fc and 20 nM streptavidin XL665 detection (Cisbio International, 611SAXLB) was prepared and 5 microlitres of the mix added to the assay plate. This was followed by the addition of 5 microlitres of a solution containing 1.2 nM FLAG®-His tagged human, cynomolgus or mouse IL-33 combined with 1.72 nM anti-FLAG® cryptate detection (Cisbio International, 61FG2KLB). All dilutions were performed in assay buffer comprised of Dulbeccos PBS (Invitrogen, 14190185) containing 0.8 M potassium fluoride (BDH 103444T) and 0.1% BSA (Sigma A9576). Assay plates were incubated for 2 hour at room temperature followed by 16 hour at 4° C. before reading time resolved fluorescence at 620 nm and 665 nm emission wavelengths using an EnVision plate reader (Perkin Elmer).

His10/Avi Human IL33-01 [3] = biological target: T2, His10/Avi Human IL33-01 (human); experiment: cell-based or functional assay
T2 chain: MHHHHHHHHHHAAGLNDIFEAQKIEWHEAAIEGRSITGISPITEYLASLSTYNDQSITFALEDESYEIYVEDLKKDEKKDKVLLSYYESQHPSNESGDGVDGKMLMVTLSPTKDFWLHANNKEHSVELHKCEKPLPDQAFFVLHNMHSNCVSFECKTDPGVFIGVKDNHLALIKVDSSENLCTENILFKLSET

His10/Avi Human IL33-01 [4] = biological target: T2, His10/Avi Human IL33-01; experiment: cell-based or functional assay
[5] = biological target: T3, Full-length human IL-33 (amino acids 1-270), HEK293-EBNA cell lysate (human, UniProt O95760 1-270); experiment: cell-based or functional assay
T3 sequence (looked up): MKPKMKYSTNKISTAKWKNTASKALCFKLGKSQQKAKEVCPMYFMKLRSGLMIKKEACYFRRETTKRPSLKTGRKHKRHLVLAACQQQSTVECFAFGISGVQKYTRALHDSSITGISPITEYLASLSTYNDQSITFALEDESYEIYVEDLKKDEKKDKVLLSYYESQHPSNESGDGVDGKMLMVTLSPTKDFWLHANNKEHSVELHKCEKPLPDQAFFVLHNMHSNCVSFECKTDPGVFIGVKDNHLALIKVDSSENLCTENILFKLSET

His10/Avi Human IL33-01 [6] = biological target: T2, His10/Avi Human IL33-01; experiment: HTRF epitope competition, IgG titrated; competitor DyLight labelled 33_640117 IgG; 1 hour
Protocol: (§1) As the epitope competition assay utilising 33_640027 reached its limit of sensitivity, an assay using 33_640117 was used for testing purified scFv samples. The assay was essentially as described for the 33v20064 competition assay with the following modifications: 2.5 nM DyLight labelled 33_640117 was prepared and 2.5 microlitres added to the assay plates. This was followed by the addition of 2.5 microlitres of a solution containing 0.12 nM biotinylated human IL-33-01 combined with 0.75 nM streptavidin cryptate detection (Cisbio International, 610SAKLB) for the human assay or a solution containing 0.24 nM biotinylated cynomolgus IL-33 combined with 1.5 nM streptavidin cryptate detection (Cisbio International, 610SAKLB) for the cynomolgus assay. Fluorescence was read after one hour and overnight incubation.
(§2) The ability of anti-IL-33 antibodies to inhibit the binding of biotinylated His Avi human IL-33 or cynomolgus His Avi IL-33 to the DyLight labelled 33_640117 IgG was assessed in a biochemical HTRF® (Homogeneous Time-Resolved Fluorescence, Cisbio International) competition assays as described above.

His10/Avi Cyno IL-33 = biological target: T4, His10/Avi Cyno IL-33 (cynomolgus monkey); experiment: as above
T4 construct: also called Cynomolgus 10His Avitag IL-33; biotinylated His Avi cynomolgus IL-33
T4 chain: T2 chain with E77K, N94S, H118Q, M146R, H147S, S148F, S177Y, C182G, T183S, T193I
Protocol: as §1, §2

His10/Avi Human IL33-01 [7] = biological target: T2, His10/Avi Human IL33-01; experiment: HTRF epitope competition, IgG titrated; competitor DyLight labelled 33_640117 IgG; overnight
Protocol: as §1, §2

[8] = biological target: T5, Human IL-33 (Axxora/Adipogen AG-40B-0038) (human, UniProt O95760 112-270, limits assumed); experiment: cell-based or functional assay
T5 sequence (looked up): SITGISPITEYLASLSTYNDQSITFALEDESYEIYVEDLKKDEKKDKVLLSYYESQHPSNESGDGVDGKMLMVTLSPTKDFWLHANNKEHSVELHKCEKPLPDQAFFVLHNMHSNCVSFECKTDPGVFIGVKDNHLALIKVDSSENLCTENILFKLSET

Human IL-33 Flag®His [9] = biological target: T1, Human IL-33 Flag®His; experiment: ELISA, biotinylated antigen on streptavidin plate, anti-human IgG HRP
Protocol: (§3) 96-well Greiner polypropylene plates (Greiner, 650201) were used for dilution preparation. Generally, each dilution was prepared in duplicate. IgG dilutions were allowed to block in PBS-M for 1 hour at room temperature before being used directly in ELISA experiments.
(§4) Streptavidin plates (Thermo Scientific, AB-1226) were coated with biotinylated antigen at 0.5 μg/ml in PBS and incubated overnight at 4° C. Plates were washed 3× with PBS and blocked with 300 μl/well blocking buffer (PBS-M) for 1 hour. Plates were washed 1× with PBS and blocked samples added, 50 μl/well for 1 hour at room temperature. […] Plates were washed 3× with PBS-T and developed with TMB, 50 μl/well (Sigma, T0440). The reaction was quenched with 50 μl/well 0.1M H2504 before reading on an EnVision™ plate reader, or similar equipment, at 450 nm.
(§5) Species cross-reactivity of anti-IL-33 antibodies was determined using a plate-based ELISA. Streptavidin plates (Thermo Scientific, AB-1226) were coated with biotinylated antigen at 0.5 μg/ml in PBS. Binding of purified IgG preparations was detected with anti-human IgG HRP (Sigma, A0170).

[10] = biological target: T6, Cynomolgus IL-33 Flag®His (cynomolgus monkey); experiment: as above
T6 construct: C-terminal FLAG 10xHis tag, E. coli; also called Mature Cynomolugus IL-33; cyno IL-33 FH
T6 chain: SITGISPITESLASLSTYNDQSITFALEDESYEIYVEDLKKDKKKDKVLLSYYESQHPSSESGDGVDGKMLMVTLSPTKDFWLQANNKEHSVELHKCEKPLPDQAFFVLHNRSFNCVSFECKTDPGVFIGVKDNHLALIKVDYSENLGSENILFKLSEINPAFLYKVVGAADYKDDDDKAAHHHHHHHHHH
Protocol: as §3, §4, §5

Mouse IL-33 Flag®His = biological target: T7, Mouse IL-33 Flag®His (mouse); experiment: as above
T7 construct: C-terminal FLAG 10xHis tag, E. coli; also called Mature Mouse IL-33_FH; mouse IL-33 FH
T7 chain: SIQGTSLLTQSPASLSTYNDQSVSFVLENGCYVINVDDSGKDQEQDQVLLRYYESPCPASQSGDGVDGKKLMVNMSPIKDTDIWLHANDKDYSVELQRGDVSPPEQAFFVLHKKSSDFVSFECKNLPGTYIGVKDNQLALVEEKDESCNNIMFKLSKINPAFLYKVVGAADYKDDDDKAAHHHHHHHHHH
Protocol: as §3, §4, §5

IC50, Mast cell IL-6 production [8]: 1220 nM
EC50 (Human IL-33 Flag®His [9]): 0.4 nM
EC50 [10]: 0.35 nM
EC50 (Mouse IL-33 Flag®His): 0.38 nM
B5: IL330099 IgG (antibody, V domains shown)
VH: QVQLQQSGAEVKKPGASVKVSCKASGYTFTSFYMNWVRQAPGQGLEWMGIISPRGGTTSYAQNFQGRVTMTRDTSTSTVYMELSGLRSDDTAVYYCATESFYYGSGTYSGDYYLYSGMADWGKGTLVTVSS
VL: SSELTQDPAVSAALGQTVRITCQGDSLRSYYASWYQQKPGQAPVLVIYGKNDRPSGIPDRFSGSSSGNTASLTITGAQAEDEADYYCNSRDSSGNHVVFGGGTKLTVL
notes: IgG1 or IgG1-TM

IC50, Mast cell IL-6 production [8]: 298 nM
EC50 (Human IL-33 Flag®His [9]): 0.23 nM
EC50 [10]: 0.35 nM
EC50 (Mouse IL-33 Flag®His): 0.17 nM
B6: IL330149 IgG (antibody, V domains shown)
VH: EVQLLESGGGLVQPGGSLRLSCAASGFTFSSYAMSWVRQAPGKGLEWVSAISGSGGSTYYADSVKGRFTISRDNSKNTLYLQMNSLRAEDTAVYYCVRTLAYSTSWFFDYWGRGTLVTVSS
VL: SYELTQPPAVSVSPGQTARITCSGDALPKKYAYWYQQKSGQAPVLVIYEDAKRPSGIPERFSGSSSGTMATLTVSGAQVEDEADYYCYSTDSSGPVFGGGTKLTVL
notes: IgG1 or IgG1-TM; also called IL33149

The next lines start with the binder.

B1: IL330020 IgG1 (antibody, V domains shown)
VH: QVQLVQSGAEVKKPGASVKVSCKASGYTFTSYGISWVRQAPGQGLEWMGWISDYQGYTKYAEKFQGRVTMTTDTSTNTAYMELRSLRSDDTAVYYCARLYSSGWIRQYHFDYWGRGTLVTVSS
VL: SYELTQPPSVSVSPGQTASITCSGDNLKDKYVSWYQQKPGQAPVLVLYQDRKRPSGIPERFSGSNSGNTATLTISGTQAMDEADYYCQAWDSGTAFGGGTKVTVL
notes: Human IgG1, lambda constant
IC50, human ST2 transfected HeLa NFkB luciferase reporter assay (Human IL-33 Flag®His [1]): 147 nM
IC50 (Human IL-33 Flag®His [2]): 40 nM

B2: 33_640237-2 IgG1 (antibody, V domains shown)
VH: EVQLLESGGGLVQPGGSLRLSCAASGFTFSSYAMSWVRQAPGKGLEWVSGIADDFTSTYYADPVKGRFTISRDNSKNTLYLQMNSLRAEDTAVYYCARDLWMMNYAGGLRYPFGYWGQGTMVTVSS
VL: SYVLTQPPSVSVSPGQTASITCSGERMGDKYAAWYQQKPGQSPVLVIYRDTKRPSGIPERFSGSNSGNTATLTISGTQAMDEADYYCGVLKQDTGVFGGGTKVTVL
IC50 (nM) vs. His Avi IL-33, Huvec IL-8 assay (His10/Avi Human IL33-01 [3]): 0.105 nM

B3: 33_640087-7 IgG1 (antibody, V domains shown)
VH: EVQLLESGGGLVQPGGSLRLSCAASGFTFSSYAMSWVRQAPGKGLEWVSGISAIDQSTYYADSVKGRFTISRDNSKNTLYLQMNSLRAEDTAVYYCARQKFMQLWGGGLRYPFGYWGQGTMVTVSS
VL: B2 VL with R26G, L90I, K91Q, Q92D, D93N
notes: IgG1
IC50, Huvec IL-8 assay vs. His Avi IL-33 (His10/Avi Human IL33-01 [4]): 0.025 nM
IC50, Huvec IL-8 assay vs. full length IL-33 cell lysate [5]: 0.073 nM
IC50 (nM) vs. His Avi IL-33, Huvec IL-8 assay (His10/Avi Human IL33-01 [3]): 0.041 nM
IC50 (His10/Avi Human IL33-01 [6]): 0.1 nM
IC50 (His10/Avi Cyno IL-33): 0.2 nM
IC50 (His10/Avi Human IL33-01 [7]): 0.1 nM

B4: 33_640201 IgG1 (antibody, V domains shown)
VH: B3 VH with G50S, S52D, D55S, Q56S, A97S
VL: B2 VL with R49Q, M80V
notes: IgG1; also called ZZ1JMY-H09
IC50, Huvec IL-8 assay vs. His Avi IL-33 (His10/Avi Human IL33-01 [4]): 0.046 nM
IC50, Huvec IL-8 assay vs. full length IL-33 cell lysate [5]: 0.101 nM
IC50 (His10/Avi Human IL33-01 [6]): 0.2 nM
IC50 (His10/Avi Cyno IL-33): 0.3 nM
IC50 (His10/Avi Human IL33-01 [7]): 0.2 nM
